This note sets out measurements from the DeepSol protein solubility set.

The data set can be described thus: soluble on expression in E. coli; label from the status in PepcDB or PDB records.
With “AERPTLPIPDLLTTDARNRIQLTIGAGQSTFGGKTATTWGYNGNLLGPAVKLQRGKAVTVDIYNQLTEETTLHWHGLEVPGEVDGGPQGIIPPGGKRSVTLNVDQPAATCWFHPHQHGKTGRQVAMGLAGLVVIEDDEILKLMLPKQWGIDDVPVIVQDKKFSADGQIDYQLDVMTAAVGWFGDTLLTNGAIYPQHAAPRGWLRLRLLNGCNARSLNFATSDNRPLYVIASDGGLLPEPVKVSELPVLMGERFEVLVEVNDNKPFDLVTLPVSQMGMAIAPFDKPHPVMRIQPIAISASGALPDTLSSLPALPSLEGLTVRKLQLSMDGGANKINGQAFDMNKPMFAAAKGQYERWVISGVGDMMLHPFHIHGTQFRILSENGKPPAAHRAGWKDTVKVEGNVSEVLVKFNHDAPKEHAYMAHCHLLEHEDTGMMLGFTVGHHHHH”, the “soluble on expression in E. coli” value is reported as “soluble”.
For “MSLSGLPESTLRYYEQIGIIDPIARDPSSGHRVYSDKDIESLTTIACLAATGMPLESMREYLKNRFDGPEGARRQIELLDAQSLRLAANAEALRIQQAYVSLKSLYWRAIAEGHEDEANRILEENKDVIENVKKQPGKGAIAREGHHHHHH”, the “soluble on expression in E. coli” value was “soluble”.
Then “MTDTHAHLDFLEPEELAEAAAHLPKLRAVLTLGVDPGRWEKTLSLAQGNVYAAVGLHPTSAHLLSPRWRRPFRHYARSERVRAIGETGLDYYWTPETRAVQLKALDFQAALAEALGLPLVLHVRSKDGKAEEDLAAWLLLHRPKRAVLHAFSGHPALEAAGLEVGAYFSFAGPLTYRKNAALREAAARLPEDRLLVETDTPFLPPEPFRGKRNRPHYVRFTLEKLAEARGLPFAEAEALTDRNARVCFGWP”, with “soluble”; and “MGSDKIHHHHHHMILKFVIRMGLTISEKIEEIMSSNESNTTLYNISSLEHLHAIFRAYRPHNGFGVVYRGQADCHWKLLPKAGRQEYLLPDDRDLGVFKDWLDRAIAYENVPNYFIEQLALAQHHGLATRLLDWTINPLIACYFACCSYPDKDGVIYILELPKTFATVDLSMETLKECSEVISYRPRQFSPRILNQGGIFTIHNPPDTTIDIGPGRIALDMPNLVQIILGKNLKHDILEMLSDYGIDERYIYPDLDGLSRSLNHSMMRMVRQRVERIDL”, with “not soluble”; and “MSPIDEFTYIKQNKIVYDSNSLIQLYFPIMGSDAMALYDYFVHFFDDGIRRHKFSEVLNHLQYGMPRFQDALVMLTALDLLTVYQATGTYLVKLNQAMSNELFLSNPIYRRLLEKRIGEVAVAELDMKIPKNARDISKKFTDVFSDLGQPKQEVNRSKNVFDLESFKRLMMRDGLRFNNEKDDVLGIYSVSELYHLNWYDTYQLAKQTAINGMIAPQRMKVQQNEGQHIKDNQSFTNNEKVILRESKNDSALVFLEKIKRSRKAVTTSGEKTLLEDLAKMNFLDEVINVMVLYTLNKTKSANLNKAYIMKVANDFAFQNVMTAEDAVLKIRDFSDQKVRTKTETKKKQSNVPEWSNPDYKDEVSPEKEIELEQFKTDALKRLERLGKDGES”, with “not soluble”.
In the case of “MGSDKIHHHHHHMSSAQVNGISKRLIVESPNVKLEDGVLESRFTYRKNHFEHRADGLHVTPKEHDYSFKTVLKPRKTGLLLVGLGGNNGSTAVGSIFANQYAMTWRTKEGHSQANYFGSVTQTATVHLGYDSATQNQIFVPFKDIVPILSPNDLIISGWDISDSNLYEAMGRAKVFEPELQEKLRPFMEPIVPLPSIYYPDFIASNQGDRANNVIPGDNKLEHLEHIRADIRKFKQEHELECVIVLWTANTERYTDVRQGLNATADEIMESIRVNEDEVSPSNIFAVASILEGAHYINGSPQNTLVPGLIELAERHKVFVGGDDFKSGQTKFKSAFVDFLVSSGMKPESIVSYNHLGNNDGKNLSEARQFRSKEISKSSVVDDMVKSNQILFPDAKNPDYCVVIKYVPYVADSKRAMDEYICSIFMGGKQTFVVHNTCEDSLLASPLIYDLAILTELASRVSYKVDDEYKPFHSVLSILSLLLKAPVVPPGTPISNAFMRQFSTLTKLVTALAGFPSDTDMQIEFFTQLPAAKSKSQ” it was “soluble”; in that of “DSLGNLVDGDQIIYIIAKDRHQRGVLHGGVVGTLMSNYGLELAITSLGVPFQRSKVGDRYVLETLREKDWKIGGETSGHIVCLDKTTTGDGIVAALQVLSIMVKQNKALHELTAGIQLL”, “not soluble”.
